US12295987B2, “Method of using a GIP/GLP1 co-agonist for diabetes” (Eli Lilly and Company, priority 2018, dated 2025)

Biological target: T1, human gastric inhibitory peptide receptor (hGIPR) (Homo sapiens, UniProt P48546)
T1 construct: expressed in transfected cells; host or cells: HEK293
T1 sequence (P48546 22-466): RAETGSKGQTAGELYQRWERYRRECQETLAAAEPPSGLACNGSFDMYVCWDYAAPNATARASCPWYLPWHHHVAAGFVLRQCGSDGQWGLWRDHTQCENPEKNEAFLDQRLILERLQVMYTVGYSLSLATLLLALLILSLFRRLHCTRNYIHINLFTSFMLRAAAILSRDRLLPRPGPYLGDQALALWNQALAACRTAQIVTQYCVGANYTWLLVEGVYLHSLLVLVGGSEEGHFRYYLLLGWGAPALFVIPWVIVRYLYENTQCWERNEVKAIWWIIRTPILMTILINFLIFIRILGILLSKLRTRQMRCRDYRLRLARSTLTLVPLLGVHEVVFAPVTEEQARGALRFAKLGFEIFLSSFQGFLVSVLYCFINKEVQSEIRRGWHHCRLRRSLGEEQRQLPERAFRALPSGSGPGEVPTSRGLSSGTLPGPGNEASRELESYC
Assay: cAMP pharmacological functional assay in presence of 0.1% casein, hGIPR
Type: cell-based
Details: ratio of hGIPR to hGLP1R cAMP EC50 ratios

| Substance | [hGIPR/hGLP1R] EC50 Ratio |
| --- | --- |
| Y-Aib-EGT-αMeF(2F)-TSDLSI-αMeL-LDEK((2-[2-(2-Amino-ethoxy)-ethoxy]-acetyl)2-(γGlu)-CO—(CH2)18—CO2H)AQ-Aib-EFI-(D-Glu)-YLIEGGPSSGAPPPS-NH2 (YXEGTXTSDLSIXLDEKAQXEFIXYLIEGGPSSGAPPPS; Aib, αMeF(2F), αMeL, D-Glu; lipidated K; amide; (2)..(2) Xaa at position 2 is Aib; (6)..(6) Xaa at position 6 is alpha-methyl-Phe(2F); (13)..(13) Xaa at position 13 is alpha-methyl-Leu; MOD_RES (17)..(17) Lys at position 17 is chemically modified by conjugation of the epsilon-amino group of the Lys side chain with (2-[2-(2-amino-ethoxy)-ethoxy]-acetyl)2-(gamma-Glu)-CO-(CH2)18- CO2H; (20)..(20) Xaa at position 20 is Aib; (24)..(24) Xaa at positi) [Peptide 183] | 3.68 |
| Y-Aib-EGT-αMeF(2F)-TSDQSI-αMeL-LDEK((2-[2-(2-Amino-ethoxy)-ethoxy]-acetyl)2-(γGlu)-CO—(CH2)18—CO2H)AQ-Aib-EFI-(D-Glu)-YLIEGGPSSGAPPPS-NH2 (YXEGTXTSDQSIXLDEKAQXEFIXYLIEGGPSSGAPPPS; Aib, αMeF(2F), αMeL, D-Glu; lipidated K; amide; (2)..(2) Xaa at position 2 is Aib; (6)..(6) Xaa at position 6 is alpha-methyl-Phe(2F); (13)..(13) Xaa at position 13 is alpha-methyl-Leu; MOD_RES (17)..(17) Lys at position 17 is chemically modified by conjugation of the epsilon-amino group of the Lys side chain with (2-[2-(2-amino-ethoxy)-ethoxy]-acetyl)2-(gamma-Glu)-CO-(CH2)18- CO2H; (20)..(20) Xaa at position 20 is Aib; (24)..(24) Xaa at positi) [Peptide 187] | 6.57 |
| Y-Aib-EGT-αMeF(2F)-TSDVSI-αMeL-LD-Orn-K((2-[2-(2-Amino-ethoxy)-ethoxy]-acetyl)2-(γGlu)-CO—(CH2)16—CO2H)AQ-Aib-AFI-(D-Glu)-αMeY-LIEGGPSSGAPPPS-NH2 (YXEGTXTSDVSIXLDXKAQXAFIXXLIEGGPSSGAPPPS; Aib, Orn, αMe residues, lipidated Lys, D-Glu, amide; (2)..(2) Xaa at position 2 is Aib; (6)..(6) Xaa at position 6 is alpha-methyl-Phe(2F); (13)..(13) Xaa at position 13 is alpha-methyl-Leu; (16)..(16) Xaa at position 16 is Orn; MOD_RES (17)..(17) Lys at position 17 is chemically modified by conjugation of the epsilon-amino group of the Lys side chain with (2-[2-(2-amino-ethoxy)-ethoxy]-acetyl)2-(gamma-Glu)-CO-(CH2)16- CO2H; (20)..(20) Xaa at positi) [Peptide 242] | 2.85 |
| Y-Aib-EGT-αMeF(2F)-TSDVSI-αMeL-LD-Orn-K((2-[2-(2-Amino-ethoxy)-ethoxy]-acetyl)2-(γGlu)-CO—(CH2)16—CO2H)AQ-Aib-TFI-(D-Glu)-αMeY-LIEGGPSSGAPPPS-NH2 (YXEGTXTSDVSIXLDXKAQXTFIXXLIEGGPSSGAPPPS; Aib, Orn, αMe residues, lipidated Lys, D-Glu, amide; (2)..(2) Xaa at position 2 is Aib; (6)..(6) Xaa at position 6 is alpha-methyl-Phe(2F); (13)..(13) Xaa at position 13 is alpha-methyl-Leu; (16)..(16) Xaa at position 16 is Orn; MOD_RES (17)..(17) Lys at position 17 is chemically modified by conjugation of the epsilon-amino group of the Lys side chain with (2-[2-(2-amino-ethoxy)-ethoxy]-acetyl)2-(gamma-Glu)-CO-(CH2)16- CO2H; (20)..(20) Xaa at positi) [Peptide 241] | 3.77 |
| Y-Aib-EGT-αMeF(2F)-TSDYSI-Aib-LD-Orn-K((2-[2-(2-Amino-ethoxy)-ethoxy]-acetyl)2-(Glu)-CO—(CH2)16—CO2H)AQ-Aib-EFI-(D-Glu)-YLIEGGPSSGAPPPS-NH2 (YXEGTXTSDYSIXLDXKAQXEFIXYLIEGGPSSGAPPPS; Aib, Orn, αMeF(2F), lipidated Lys, D-Glu, amide; (2)..(2) Xaa at position 2 is Aib; (6)..(6) Xaa at position 6 is alpha-methyl-Phe(2F); (13)..(13) Xaa at position 13 is Aib; (16)..(16) Xaa at position 16 is Orn; MOD_RES (17)..(17) Lys at position 17 is chemically modified by conjugation of the epsilon-amino group of the Lys side chain with (2-[2-(2-amino-ethoxy)-ethoxy]-acetyl)2-(gamma-Glu)-CO-(CH2)16- CO2H; (20)..(20) Xaa at position 20 is Aib;) [Peptide 247] | 4.20 |
| Y-Aib-EGT-αMeF(2F)-TSDYSI-Aib-LD-Orn-K((2-[2-(2-Amino-ethoxy)-ethoxy]-acetyl)2-(γGlu)-CO—(CH2)18—CO2H)AQ-Aib-EFI-(D-Glu)-YLIEGGPSSGAPPPS-NH2 (YXEGTXTSDYSIXLDXKAQXEFIXYLIEGGPSSGAPPPS; Aib, Orn, αMeF(2F), lipidated Lys, D-Glu, amide; (2)..(2) Xaa at position 2 is Aib; (6)..(6) Xaa at position 6 is alpha-methyl-Phe(2F); (13)..(13) Xaa at position 13 is Aib; (16)..(16) Xaa at position 16 is Orn; MOD_RES (17)..(17) Lys at position 17 is chemically modified by conjugation of the epsilon-amino group of the Lys side chain with (2-[2-(2-amino-ethoxy)-ethoxy]-acetyl)2-(gamma-Glu)-CO-(CH2)18- CO2H; (20)..(20) Xaa at position 20 is Aib;) [Peptide 250] | 4.34 |
| Y-Aib-EGT-αMeF(2F)-TSDYSI-Aib-LDEK((2-[2-(2-Amino-ethoxy)-ethoxy]-acetyl)2-(γGlu)-CO—(CH2)18—CO2H)AQ-Aib-EFI-(D-Glu)-YLIEGGPSSGAPPPS-NH2 (YXEGTXTSDYSIXLDEKAQXEFIXYLIEGGPSSGAPPPS; Aib, αMeF(2F), D-Glu; lipidated K; amide; (2)..(2) Xaa at position 2 is Aib; (6)..(6) Xaa at position 6 is alpha-methyl-Phe(2F); (13)..(13) Xaa at position 13 is Aib; MOD_RES (17)..(17) Lys at position 17 is chemically modified by conjugation of the epsilon-amino group of the Lys side chain with (2-[2-(2-amino-ethoxy)-ethoxy]-acetyl)2-(gamma-Glu)-CO-(CH2)18- CO2H; (20)..(20) Xaa at position 20 is Aib; (24)..(24) Xaa at position 24 is D-Gl) [Peptide 224] | 3.32 |
